This is an account of results in patent US20150098945A1 (Daiichi Sankyo, published 2015).

The target in test [1] is T1, N-terminal FLAG-tagged human ROBO4 extracellular region/domain deletion variant hROBO4-210 (human, UniProt Q8WZ75 210-1007).
T1 construct: On transfected HEK293 cells; also called pCI-FLAG-hROBO4-210; pCI-hROBO4-210
T1 sequence: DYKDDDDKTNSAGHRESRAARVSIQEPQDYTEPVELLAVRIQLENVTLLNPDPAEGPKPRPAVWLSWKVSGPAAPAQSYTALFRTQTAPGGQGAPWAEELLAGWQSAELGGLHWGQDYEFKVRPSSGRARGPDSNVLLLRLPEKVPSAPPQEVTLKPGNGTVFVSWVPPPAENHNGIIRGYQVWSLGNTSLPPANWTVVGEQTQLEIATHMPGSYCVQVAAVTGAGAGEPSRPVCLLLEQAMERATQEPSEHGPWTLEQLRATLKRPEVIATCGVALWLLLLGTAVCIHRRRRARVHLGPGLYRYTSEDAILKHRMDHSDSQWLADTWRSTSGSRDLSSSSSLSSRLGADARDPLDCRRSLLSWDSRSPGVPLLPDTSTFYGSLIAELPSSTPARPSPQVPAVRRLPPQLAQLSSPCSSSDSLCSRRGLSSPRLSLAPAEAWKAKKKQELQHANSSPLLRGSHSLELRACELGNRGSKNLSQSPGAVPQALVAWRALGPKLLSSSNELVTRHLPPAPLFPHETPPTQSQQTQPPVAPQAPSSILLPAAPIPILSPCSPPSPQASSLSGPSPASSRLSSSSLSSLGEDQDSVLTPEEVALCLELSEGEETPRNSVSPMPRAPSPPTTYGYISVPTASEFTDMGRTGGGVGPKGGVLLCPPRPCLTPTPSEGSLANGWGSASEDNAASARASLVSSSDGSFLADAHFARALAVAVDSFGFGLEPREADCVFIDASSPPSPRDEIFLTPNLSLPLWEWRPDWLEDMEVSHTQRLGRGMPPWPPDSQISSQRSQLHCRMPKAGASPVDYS
Briefly: flow cytometry, HEK293 cells transfected with pCI-FLAG-hROBO4-210, anti-mouse IgG FITC; control histogram IgG (Mouse IgG2a). On the procedure: HEK293 cells were inoculated at a concentration of 1.5×10⁶ cells/dish to a 60-mm dish (manufactured by Corning Inc.) and cultured overnight in a DMEM medium containing 10% FBS at 37° C. under 5% CO₂ conditions. […] On the next day, the expression vector-transfected cells were treated with TrypLE Express (manufactured by Life Technologies Corp.), washed with PBS containing 5% FBS, and then suspended in PBS containing 5% FBS. The obtained cell suspension was used in flow cytometry analysis.
Each cell suspension prepared in 4)-5-1 was centrifuged, and the supernatant was removed. Then, MAb1, a positive control Monoclonal ANTI-FLAG M2 antibody produced in mouse, or a negative control Mouse IgG2a was added at a concentration of 10 μg/mL to 2×10⁵ expression vector-transfected cells, and the resulting suspension was left standing at 4° C. for 1 hour. The cells were washed once with PBS containing 5% FBS. Then, Anti-Mouse IgG FITC conjugate diluted 1000-fold with PBS containing 5% FBS was added thereto, and the resulting suspension was left standing at 4° C. for 1 hour. […] Data was analyzed using Flowjo. The histogram of FITC fluorescence intensity was prepared. The antibody was determined to bind to a cell when the histogram of MAb1 was shifted to a stronger fluorescence intensity region compared with the histogram of the negative control Mouse IgG2a. […]

The target of test [2] is T2, rat ROBO4 (pCI-raROBO4-transfected HEK293 cells) (rat, UniProt Q80W87 38-949 at identity 0.93)).
T2 chain: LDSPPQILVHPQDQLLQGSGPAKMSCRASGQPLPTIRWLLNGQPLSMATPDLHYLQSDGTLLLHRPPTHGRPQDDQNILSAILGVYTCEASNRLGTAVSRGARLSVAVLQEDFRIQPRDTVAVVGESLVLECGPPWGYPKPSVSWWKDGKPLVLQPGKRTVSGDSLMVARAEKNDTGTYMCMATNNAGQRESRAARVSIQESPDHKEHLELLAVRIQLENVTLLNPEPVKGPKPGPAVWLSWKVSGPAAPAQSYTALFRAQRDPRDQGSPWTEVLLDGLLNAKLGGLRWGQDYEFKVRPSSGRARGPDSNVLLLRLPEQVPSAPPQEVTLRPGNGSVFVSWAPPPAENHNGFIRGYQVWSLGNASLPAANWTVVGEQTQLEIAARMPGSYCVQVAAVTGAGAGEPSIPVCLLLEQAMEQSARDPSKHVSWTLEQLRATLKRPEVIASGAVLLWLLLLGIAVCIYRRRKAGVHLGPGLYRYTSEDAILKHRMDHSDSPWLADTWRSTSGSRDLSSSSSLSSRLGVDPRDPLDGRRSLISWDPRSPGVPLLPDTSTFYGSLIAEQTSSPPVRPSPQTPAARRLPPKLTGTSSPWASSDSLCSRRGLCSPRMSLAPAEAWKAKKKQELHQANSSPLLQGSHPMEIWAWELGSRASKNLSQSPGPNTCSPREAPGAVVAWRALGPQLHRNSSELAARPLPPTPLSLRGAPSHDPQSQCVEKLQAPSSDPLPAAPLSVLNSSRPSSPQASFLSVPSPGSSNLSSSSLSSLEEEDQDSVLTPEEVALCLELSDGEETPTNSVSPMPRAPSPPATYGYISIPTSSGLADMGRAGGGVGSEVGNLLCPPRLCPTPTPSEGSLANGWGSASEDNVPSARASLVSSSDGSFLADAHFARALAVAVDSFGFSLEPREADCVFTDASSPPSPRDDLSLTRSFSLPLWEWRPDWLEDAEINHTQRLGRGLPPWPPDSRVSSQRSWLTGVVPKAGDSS
Briefly: flow cytometry (FC500), HEK293 cells transfected with pCI-raROBO4, FITC goat anti-human IgG Fc; control histogram IgG (human IgG).

B1: anti-ROBO4 mouse monoclonal antibody MAb1 (antibody, mouse IgG1, V domains shown)
VH: EVQLVESGGGLVKPGGSLKLSCAASGFTFSTYAMSWVRQTPEKRLEWVATISNGGTYTYYPDSVKGRFTISRDNAENTLYLQMSSLRSEDTAMYFCARLIYYDYLDYWGHGTTLTVSS
VL: DAVMTQTPLSLPVSLGDQASISCRSSQSLENSNGNTYLNWYFQKPGQSPQLLIYRVSNRFSGVLDRFSGSGSGTDFTLKISRVEAEDFGVYFCLQVTHVPWTFGGGTKLEIKR
notes: Mouse IgG1 (gamma1), kappa light chain, purified from hybridoma supernatant; also called parent antibody MAb1
On to B1, for which the binding result in test [1] is reported as “no binding (tested: 10 µg/mL)”.

B2: humanized MAb1 antibody H-1143 (antibody, human IgG2, kappa, V domains shown)
VH: EVQLVESGGGLVQPGGSLRLSCAASGFTFSTYAMSWVRQAPGKGLEWVATISQGGTYTYYPDSVKGRFTISRDNAKNTLYLQMNSLRAEDTAVYYCARLIYYDYLDYWGQGTLVTVSS
VL: DIVMTQSPLSLPVTLGEPASISCRSSQSLENENKNLYLNWYLQKPGQSPQLLIYRVSNRFSGVPDRFSGSGSGTDFTLKISRVEAEDVGVYYCLQVTHVPWTFGPGTKVDIKR
notes: Human IgG2 / kappa constant regions; also called hMAb1-H2-type heavy chain + hMAb1-L2-type light chain
B2: the binding result in test [2] was “no binding (tested: 10 µg/mL)”.
